Measured values as given in US10047341B2, “Generation of keratinocytes from pluripotent stem cells and maintenance of keratinocyte cultures” (FUJIFILM Cellular Dynamics, Inc., priority 2014, dated 2018).

How the values were obtained:
[1] = test system: human ESC/iPSCs; test: iKCs derivation from human ESC/iPSCs: critical medium components; type: cell-based; settings: Passage 0, Day 14 differentiation culture, anti-K14 immunofluorescence
[2] = test system: primary human keratinocytes; test: Long-term culture of primary keratinocytes (population doubling); settings: niacinamide 3 mM, BMP4 0.5 ng/mL as components of KCM4
Method: Keratinocytes were maintained in the indicated medium and passaged every 4-5 days (at ˜80% confluence). For passage, keratinocytes were incubated with a 0.1% Trypsin in Versene solution at 37° C. for 5 minutes. The trypsin was neutralized with 0.5 mg/mL of trypsin inhibitor. The cells were centrifuged at 1200 rpm for 4 min. Cells were counted with a Cellometer (Nexcelom). Cells (25,000-50,000) were plated per well of 6-well plates in the indicated keratinocyte culture media. Media was changed every other day.
Cells were maintained by serial passage at ˜80% confluence until senescence. The total number of cell doublings for each passage was calculated using the following formula: 3.32 log(N/No). Where No refers to the number of cells plated at the beginning of each passage and N is the number of cells recovered at the end of each passage.

Row | Molecule | K14 expression with different fibroblast growth factors [1] | life span and stemness of primary keratinocytes in culture [2] | life span and stemness of primary keratinocytes in culture ([2]; listed as BMP-4)
1 | FGF7: fibroblast growth factor FGF7 (protein, UniProt P21781 32-194, looked up) Fibroblast growth factor 7: CNDMTPEQMATNVNCSSPERHTRSYDYMEGGDIRVRRLFCRTQWYLRIDKRGKVKGTQEMKNNYNIMEIRTVAVGIVAIKGVESEFYLAMNKEGKLYAKKECNEDCNFKELILENHYNTYASAKWTHNGGEMFVALNQKGIPVRGKKTKKEQKTAHFLPMAIT | did not promote homogeneous K14 expression | – | –
2 | BMP4: growth factor BMP4, neuronal fate suppressor, medium supplement (protein, UniProt P12644 293-408, looked up) Bone morphogenetic protein 4: SPKHHSQRARKKNKNCRRHSLYVDFSDVGWNDWIVAPPGYQAFYCHGDCPFPLADHLNSTNHAIVQTLVNSVNSSIPKACCVPTELSAISMLYLDEYDKVVLKNYQEMVVEGCGCR | – | maintained the stemness of primary keratinocyte stem cells in culture | extend the life span of primary keratinocytes in culture
